B1: B-cell lymphoma/leukemia 10 (Homo sapiens), O95999 (parent)
chain: MEPTAPSLTEEDLTEVKKDALENLRVYLCEKIIAERHFDHLRAKKILSREDTEEISCRTSSRKRAGKLLDYLQENPKGLDTLVESIRREKTQNFLIQKITDEVLKLRNIKLEHLKGLKCSSCEPFPDGATNNLSRSNSDESNFSEKLRASTVMYHPEGESSTTPFFSTNSSLNLPVLEVGRTENTIFSSTTLPRPGDPGAPPLPPDLQLEEEGTCANSSEMFLPLRSRTVSRQ
partner: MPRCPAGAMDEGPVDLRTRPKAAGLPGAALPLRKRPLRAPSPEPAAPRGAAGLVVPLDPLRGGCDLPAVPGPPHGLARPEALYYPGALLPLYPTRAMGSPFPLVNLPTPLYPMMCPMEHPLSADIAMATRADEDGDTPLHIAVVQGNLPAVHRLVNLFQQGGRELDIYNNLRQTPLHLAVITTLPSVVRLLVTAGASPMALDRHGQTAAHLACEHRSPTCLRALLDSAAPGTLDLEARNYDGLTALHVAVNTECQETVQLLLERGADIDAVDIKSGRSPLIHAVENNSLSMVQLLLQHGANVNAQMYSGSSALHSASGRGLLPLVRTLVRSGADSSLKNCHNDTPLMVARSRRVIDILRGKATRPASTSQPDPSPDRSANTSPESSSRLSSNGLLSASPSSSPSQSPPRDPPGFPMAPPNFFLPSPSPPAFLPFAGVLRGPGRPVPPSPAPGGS

Variants of: B1
Conditions: with bcl3_human BCL3, P20749

effect of a mutation on the interaction	Variant
increasing interaction	MEPTAPSLTEEDLTEVKKDALENLRVYLCEKIIAERHFDHLRAKKILSREDTEEISCRTSSRKRAGKLLDYLQENPKGLDTLVESIRREKTQNFLIQKITDEVLKLRNIKLEHLKGLKCSSCEPFPDGATNNLSRSNSDESNFSEKLRASTVMYHPEGESSTTPFFSTNSSLNLPVLEVGRTENTIFSSTTLPRPGDPGAPPLPPDLQLEEEGTCANDSEMFLPLRSRTVSRQ [S218D]
increasing interaction	MEPTAPSLTEEDLTEVKKDALENLRVYLCEKIIAERHFDHLRAKKILSREDTEEISCRTSSRKRAGKLLDYLQENPKGLDTLVESIRREKTQNFLIQKITDEVLKLRNIKLEHLKGLKCSSCEPFPDGATNNLSRSNSDESNFSEKLRASTVMYHPEGESSTTPFFSTNSSLNLPVLEVGRTENTIFSSTTLPRPGDPGAPPLPPDLQLEEEGTCANSSEMFLPLRSRTVDRQ [S231D]
